Laboratory results: patent US20250179176A1, “ANTI-TIGIT ANTIBODIES AND USES OF THE SAME” (ARCUS BIOSCIENCES, INC., priority 2022, published 2025)
Read-outs that look alike come from different tables or passages of the source.

Key:
CD8+ T cells = experiment: Ki67 on circulating CD8+ T cells (whole blood flow cytometry); type: in vivo, human
Protocol: Quantitation of Ki-67, a nuclear protein associated with cell cycle, is a common method to evaluate cell proliferation, especially in human samples ex vivo.
Immune cell profiling was conducted in whole blood by flow cytometry. For patients enrolled in the study described in Example 5 or Example 6, Ki67 changes on CD8^+ T cells were evaluated in whole blood by similar methods. Extracellular staining cocktails which included (minimally) CD3, CD8, and CD56 antibodies were added to 500 ul of whole blood and incubated on ice for 30 minutes. These markers were used to identify CD8^+ T cells (CD3^+CD56^− CD8^+) in both studies. For patients in the study of Example 6, extracellular cocktails also included CD45RA, CD39, and CD103 antibodies to identify an antigen-experienced memory CD8^+ T cell population (CD3^+CD56^−CD8^+CD45RA^−CD39^+CD103^+). Following extracellular staining, all blood samples were fixed and lysed using 1×BD FACSLyse buffer for 20 minutes on ice and then stored at −80° C. for up to 6 weeks. Upon thawing, samples were centrifuged at 400×g for 5 min to remove the lysing solution, washed in PBS, and then fixed and permeabilized in 100 ul of 1×FoxP3 Fixation Buffer for 1 hour at room temperature. […] The maximum fold change observed with the first cycle of treatment (between C1D1 and C2D29) was also determined for Ki67 expression on CD8^+ T cells.

[1] = Phase 2 study in front-line NSCLC (ARC-7), safety
TIGIT = biological target: T1, TIGIT (Homo sapiens, UniProt Q495A1); experiment: TIGIT receptor occupancy (RO) assay in whole blood by flow cytometry; type: in vivo
T1 construct: select peripheral lymphocyte populations in whole blood collected from patients enrolled in a clinical study; endogenous in cells; host or cells: peripheral lymphocytes in whole blood of dosed patients
T1 sequence (Q495A1 22-244): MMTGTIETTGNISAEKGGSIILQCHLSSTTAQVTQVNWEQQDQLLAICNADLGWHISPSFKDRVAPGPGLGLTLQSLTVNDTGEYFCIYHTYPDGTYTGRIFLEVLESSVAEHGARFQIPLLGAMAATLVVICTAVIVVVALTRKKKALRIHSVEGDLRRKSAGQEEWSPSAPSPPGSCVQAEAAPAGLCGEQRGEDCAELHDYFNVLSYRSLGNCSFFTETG
Protocol: The RO assay is depicted in FIG. 3A and FIG. 3B.
The RO of domvanalimab on select peripheral lymphocyte populations in whole blood collected from patients enrolled in a clinical study was assessed by flow cytometry using pre- and post-dose whole blood samples. […] RO was determined on various immune cell types using antibodies specific for surface markers CD3, CD4, CD8, CD56, FoxP3, and Ki67. RO was calculated as follows: […]

[2] = monotherapy cohort (N=10), initial cutoff
[3] = monotherapy cohort (N=10), Grade 1
[4] = all domvanalimab containing arms, 74 participants, initial cutoff

With “zimberelimab: antagonistic PD-1 antibody, immune checkpoint inhibitor” as the molecule, how does the “proliferating CD8+ T cells” value (CD8+ T cells; patients of the Example 6 study, PD-L1hi NSCLC) read?
Its value is “Increases”.

What about the “Any TEAEs Leading to Death” value ([1]; Table 4, initial cutoff) of the same molecule?
Its value is 3 (8) n (%).

And the “SAE COVID-19, events” value ([1]; Table 7, initial cutoff)?
Its value is 0 n.

And the “SAE COVID-19, subjects” value ([1]; Table 7, initial cutoff)?
Its value is 0 n (%).

And the “Any TEAEs Leading to Death” value ([1]; Table 10, later cutoff)?
The value was 3 (6.0) n (%).

What about the “Any TEAEs Leading to Death, related to study treatment” value ([1]; Table 10, later cutoff) of the same molecule?
Its value is 1 (2.0) n (%).

What about the “Grade 5 TEAEs related to study treatment (per physician assessment)” value ([1]; safety population (149 patients)) of the same molecule?
Its value is “interstitial lung disease”.

B1: domvanalimab: anti-TIGIT antibody with engineered IgG1 Fc, reduced FcγR binding; heavy chain SEQ ID NO: 12, light chain SEQ ID NO: 13 (antibody)
heavy: EVQLVESGGGLVQPGGSLRLSCAASGFTFSNFGMHWVRQAPGKGLEWVAFISSGSSSIYYADTVKGRFTISRDNAKNSLYLQMNSLRAEDTAVYYCARMRLDYYAMDYWGQGTMVTVSSASTKGPSVFPLAPSSKSTSGGTAALGCLVKDYFPEPVTVSWNSGALTSGVHTFPAVLQSSGLYSLSSVVTVPSSSLGTQTYICNVNHKPSNTKVDKKVEPKSCDKTHTCPPCPAPEAAGGPSVFLFPPKPKDTLMISRTPEVTCWVDVSHEDPEVKFNWYVDGVEVHNAKTKPREEQYNSTYRWSVLTVLHQDWLNGKEYKCKVSNKALPAPIEKTISKAKGQPREPQVYTLPPSRDELTKNQVSLTCLVKGFYPSDIAVEWESNGQPENNYKTTPPVLDSDGSFFLYSKLTVDKSRWQQGNVFSCSVMHEALHNHYTQKSLSLSPGK
light: DIQMTQSPSSLSASVGDRVTITCRASKSISKYLAWYQQKPGKAPKLLIYSGSTLQSGVPSRFSGSGSGTDFTLTISSLQPEDFATYYCQQHNEYPWTFGGGTKVEIKRTVAAPSVFIFPPSDEQLKSGTASWCLLNNFYPREAKVQWKVDNALQSGNSQESVTEQDSKDSTYSLSSTLTLSKADYEKHKVYACEVTHQGLSSPVTKSFNRGEC
What does the source list for B1?
RO across all dose groups (TIGIT; 24 participants, 0.5-20 mg/kg Q2W/Q3W/Q4W, all post-dose time points): maximal RO; TIGIT receptor occupancy (RO) (TIGIT; Q2W, monotherapy and combination cohorts, all cell types, 1 hour after end of infusion of first dose): ≥ 98%; RO at later time points (TIGIT; Q2W, pre-dose Day 15, 29, 57, 85): complete RO was maintained; proliferative marker (Ki67) on circulating CD8+ T cells (CD8+ T cells; patients of the Example 5 study): increases; SAE decreased appetite (monotherapy cohort (N=10)): 10%; SAE dyspnea (monotherapy cohort (N=10)): 10%; SAE hyponatremia (monotherapy cohort (N=10)): 10%; SAE peritonitis bacterial (monotherapy cohort (N=10)): 10%; SAE pleural effusion (monotherapy cohort (N=10)): 10%; discontinued domvanalimab due to a TEAE (monotherapy cohort (N=10)): 30%; dose delays/interruptions due to a TEAE (monotherapy cohort (N=10)): 10%; SAEs considered related to domvanalimab [2]: none; TEAE dyspnea regardless of causality [2]: 30%; all other TEAEs, each [2]: ≤ 10%; participants with SAEs [2]: 40%; participants with at least 1 TEAE [2]: 100%; participants with domvanalimab-related TEAEs [2]: 30%; total number of SAEs [2]: 5; domvanalimab-related TEAE fatigue [3]: 10%; domvanalimab-related TEAE hyperglycemia [3]: 10%; domvanalimab-related TEAE nausea [3]: 10%; domvanalimab-related TEAE pruritus [3]: 10%; deaths due to treatment-related AEs (whole study, initial cutoff): No deaths; fatal case of myocarditis related to study treatment ([1]; 74 participants, case received domvanalimab and zimberelimab): 1.3%; fatal case of pneumonitis related to study treatment ([1]; 74 participants, case received domvanalimab, zimberelimab and etrumadenant): 1.3%; TEAE leading to domvanalimab dose modification/interruption [1, 4]: 27.0%; discontinued domvanalimab due to a TEAE [1, 4]: 4.0%; participants with TEAE Grade ≥3 [1, 4]: 45.9%; participants with TEAEs Grade ≥3 related to domvanalimab [1, 4]: 10.8%; participants with at least 1 TEAE [1, 4]: 93.2%; participants with serious adverse events [1, 4]: 25.6%; participants with treatment related AE related to domvanalimab [1, 4]: 56.7%; participants with treatment related SAEs [1, 4]: 8.3%
